# From patent US20110207116A1 (University of California, published 2011)
# T1: PhyBFL-10aaLinker-mCherry-Kras4BCT (Arabidopsis thaliana, UniProt P14713 1-1172, phycocyanobilin (PCB) chromophore covalently bound; C-terminal CaaX prenylation sequence)
# T1 construct: also called pAL162; PhyB full length; not shown: mCherry fluorescent protein, amplified from a vector
# T1 sequence: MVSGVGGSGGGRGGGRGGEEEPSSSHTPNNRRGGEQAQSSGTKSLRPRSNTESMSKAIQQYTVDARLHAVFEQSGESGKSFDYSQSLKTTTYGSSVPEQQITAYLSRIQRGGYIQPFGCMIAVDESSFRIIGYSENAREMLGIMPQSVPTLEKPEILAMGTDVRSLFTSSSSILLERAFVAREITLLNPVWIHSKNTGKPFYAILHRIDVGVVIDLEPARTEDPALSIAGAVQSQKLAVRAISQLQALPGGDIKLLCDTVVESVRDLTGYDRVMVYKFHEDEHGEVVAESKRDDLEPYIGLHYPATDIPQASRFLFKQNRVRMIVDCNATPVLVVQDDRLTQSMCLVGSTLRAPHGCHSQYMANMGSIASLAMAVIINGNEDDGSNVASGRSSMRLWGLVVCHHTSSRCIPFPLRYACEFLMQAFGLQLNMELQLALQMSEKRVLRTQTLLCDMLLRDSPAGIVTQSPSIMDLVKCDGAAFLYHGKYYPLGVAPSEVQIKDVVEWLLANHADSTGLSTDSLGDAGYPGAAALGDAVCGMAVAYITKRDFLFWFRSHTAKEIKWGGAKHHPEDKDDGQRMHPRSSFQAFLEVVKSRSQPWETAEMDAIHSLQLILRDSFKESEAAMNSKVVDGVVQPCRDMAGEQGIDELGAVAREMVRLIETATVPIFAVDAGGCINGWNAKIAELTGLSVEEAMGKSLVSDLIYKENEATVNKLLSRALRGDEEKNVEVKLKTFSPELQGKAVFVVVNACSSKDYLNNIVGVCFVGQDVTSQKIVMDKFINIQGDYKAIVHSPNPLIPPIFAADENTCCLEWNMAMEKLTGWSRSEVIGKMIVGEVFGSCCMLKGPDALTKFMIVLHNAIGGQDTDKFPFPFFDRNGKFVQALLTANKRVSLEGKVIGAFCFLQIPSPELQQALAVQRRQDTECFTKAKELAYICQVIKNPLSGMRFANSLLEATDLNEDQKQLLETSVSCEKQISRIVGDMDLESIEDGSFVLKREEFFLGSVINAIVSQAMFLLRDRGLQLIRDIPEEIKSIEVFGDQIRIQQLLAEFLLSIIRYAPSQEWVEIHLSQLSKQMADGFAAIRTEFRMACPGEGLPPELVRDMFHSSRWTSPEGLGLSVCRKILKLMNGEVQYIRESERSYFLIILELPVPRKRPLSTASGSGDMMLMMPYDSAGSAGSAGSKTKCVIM
# T2: PhyB(1-650)-10aaLinker-mCherry-Kras4BCT (Arabidopsis thaliana, UniProt P14713 1-650, phycocyanobilin (PCB) chromophore covalently bound; C-terminal CaaX prenylation sequence)
# T2 construct: Expressed in NIH3T3 cells at the plasma membrane; also called pAL117; PhyB-NT; not shown: mCherry fluorescent protein, amplified from a vector
# T2 sequence: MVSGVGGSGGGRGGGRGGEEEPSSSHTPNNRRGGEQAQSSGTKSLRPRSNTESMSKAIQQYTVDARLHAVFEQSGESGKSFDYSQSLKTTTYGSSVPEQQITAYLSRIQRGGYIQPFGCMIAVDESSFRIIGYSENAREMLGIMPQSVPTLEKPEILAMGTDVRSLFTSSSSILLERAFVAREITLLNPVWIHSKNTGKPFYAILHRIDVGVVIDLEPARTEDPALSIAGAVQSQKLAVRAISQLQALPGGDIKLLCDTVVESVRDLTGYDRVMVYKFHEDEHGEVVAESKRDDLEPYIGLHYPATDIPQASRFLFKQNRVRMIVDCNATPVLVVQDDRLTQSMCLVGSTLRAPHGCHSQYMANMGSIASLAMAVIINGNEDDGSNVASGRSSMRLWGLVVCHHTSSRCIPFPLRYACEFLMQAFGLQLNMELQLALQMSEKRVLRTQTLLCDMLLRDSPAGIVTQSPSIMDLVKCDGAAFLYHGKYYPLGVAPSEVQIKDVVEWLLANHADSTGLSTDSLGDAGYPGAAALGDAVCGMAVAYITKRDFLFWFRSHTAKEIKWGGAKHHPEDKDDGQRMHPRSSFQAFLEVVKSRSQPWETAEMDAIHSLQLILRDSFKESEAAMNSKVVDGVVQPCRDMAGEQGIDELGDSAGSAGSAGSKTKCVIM
# T3: PhyB(1-450)-10aaLinker-mCherry-Kras4BCT (Arabidopsis thaliana, UniProt P14713 1-450, phycocyanobilin (PCB) chromophore covalently bound; C-terminal CaaX prenylation sequence)
# T3 construct: Expressed in NIH3T3 cells at the plasma membrane; also called pAL161; PhyB-CBD; not shown: mCherry fluorescent protein, amplified from a vector
# T3 sequence: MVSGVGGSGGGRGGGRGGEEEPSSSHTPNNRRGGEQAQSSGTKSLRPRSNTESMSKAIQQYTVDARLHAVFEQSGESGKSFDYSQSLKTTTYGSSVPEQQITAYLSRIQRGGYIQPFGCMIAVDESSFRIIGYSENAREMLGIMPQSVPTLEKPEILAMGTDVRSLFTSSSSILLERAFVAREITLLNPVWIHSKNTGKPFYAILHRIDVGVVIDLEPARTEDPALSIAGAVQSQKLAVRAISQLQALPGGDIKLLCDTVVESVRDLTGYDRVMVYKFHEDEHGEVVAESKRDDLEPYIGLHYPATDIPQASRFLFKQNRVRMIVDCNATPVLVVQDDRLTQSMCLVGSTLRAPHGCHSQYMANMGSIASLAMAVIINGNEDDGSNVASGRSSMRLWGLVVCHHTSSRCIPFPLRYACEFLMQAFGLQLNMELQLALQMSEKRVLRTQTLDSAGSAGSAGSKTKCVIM
# B1: PIF3APB-mYFP (other)
# chain: MPLFELFRLTKAKLESAQDRNPSPPVDEVVELVWENGQISTQSQSSRSRNIPPPQANSSRAREIGNGSKTTMVDEIPMSVPSLMTGLSQDDDFVPWLNHH
# notes: also called pAL100; PIF3-100NT; not shown: mYFP: EYFP with monomerizing A206K mutation
# B2: PhyB(1-908)-10aaLinker-mCherry-Kras4BCT (other)
# chain: MVSGVGGSGGGRGGGRGGEEEPSSSHTPNNRRGGEQAQSSGTKSLRPRSNTESMSKAIQQYTVDARLHAVFEQSGESGKSFDYSQSLKTTTYGSSVPEQQITAYLSRIQRGGYIQPFGCMIAVDESSFRIIGYSENAREMLGIMPQSVPTLEKPEILAMGTDVRSLFTSSSSILLERAFVAREITLLNPVWIHSKNTGKPFYAILHRIDVGVVIDLEPARTEDPALSIAGAVQSQKLAVRAISQLQALPGGDIKLLCDTVVESVRDLTGYDRVMVYKFHEDEHGEVVAESKRDDLEPYIGLHYPATDIPQASRFLFKQNRVRMIVDCNATPVLVVQDDRLTQSMCLVGSTLRAPHGCHSQYMANMGSIASLAMAVIINGNEDDGSNVASGRSSMRLWGLVVCHHTSSRCIPFPLRYACEFLMQAFGLQLNMELQLALQMSEKRVLRTQTLLCDMLLRDSPAGIVTQSPSIMDLVKCDGAAFLYHGKYYPLGVAPSEVQIKDVVEWLLANHADSTGLSTDSLGDAGYPGAAALGDAVCGMAVAYITKRDFLFWFRSHTAKEIKWGGAKHHPEDKDDGQRMHPRSSFQAFLEVVKSRSQPWETAEMDAIHSLQLILRDSFKESEAAMNSKVVDGVVQPCRDMAGEQGIDELGAVAREMVRLIETATVPIFAVDAGGCINGWNAKIAELTGLSVEEAMGKSLVSDLIYKENEATVNKLLSRALRGDEEKNVEVKLKTFSPELQGKAVFVVVNACSSKDYLNNIVGVCFVGQDVTSQKIVMDKFINIQGDYKAIVHSPNPLIPPIFAADENTCCLEWNMAMEKLTGWSRSEVIGKMIVGEVFGSCCMLKGPDALTKFMIVLHNAIGGQDTDKFPFPFFDRNGKFVQALLTANKRVSLEGKVIGAFCFLQIPSDSAGSAGSAGSKTKCVIM
# modifications: phycocyanobilin (PCB) chromophore covalently bound; C-terminal CaaX prenylation sequence
# notes: Expressed in NIH3T3 cells, localized to the plasma membrane; also called pAL149; PhyB908; not shown: mCherry fluorescent protein, amplified from a vector
# Legend:
# [1] = molecular target: T1, PhyBFL-10aaLinker-mCherry-Kras4BCT; assay: YFP membrane translocation in NIH3T3 cells, confocal microscopy
# [2] = molecular target: T4, PhyB(1-650)-Gal4DD-10aaLinker-mCherry-Kras4BCT (Arabidopsis thaliana; Saccharomyces …, UniProt P04386 50-106, phycocyanobilin (PCB) chromophore covalently bound; C-terminal CaaX prenylation sequence); assay: as above
# T4 construct: also called pAL148; not shown: mCherry fluorescent protein, amplified from a vector
# [3] = molecular target: T2, PhyB(1-650)-10aaLinker-mCherry-Kras4BCT; assay: as above
# [4] = molecular target: T3, PhyB(1-450)-10aaLinker-mCherry-Kras4BCT; assay: as above
# [5] = molecular target: B2; assay: as above
# [6] = molecular target: T5, PIF6APB-mYFP-20aaLinker-Rac1(Q61L)ΔCT (Arabidopsis thaliana, UniProt P63000 1-188); assay: global light-activated membrane translocation in NIH3T3 cells, red light
# T5 construct: also called pAL105; Rac1(Q61L, no caax); not shown: mYFP: EYFP with monomerizing A206K mutation
binding result [1],binding result [2],binding result [3],binding result [4],binding result [5],binding result [6],Binder
no binding,no binding,no binding,no binding,no binding,–,B1
–,–,–,–,–,binds,B2
